# Data from paper PMC6755732, “Structural, Biochemical, and In Vivo Characterization of MtrR-Mediated Resistance to Innate Antimicrobials by the Human Pathogen Neisseria gonorrhoeae” (Journal of Bacteriology, 2019).
# B1: MtrR (natural protein)
# chain: MRKTKTEALKTKEHLMLAALETFYRKGIARTSLNEIAQAAGVTRGALYWHFKNKEDLFDALFQRICDDIENCIAQDAADAEGGSWTVFRHTLLHFFERLQSNDIHYKFHNILFLKCEHTEQNAAVIAIARKHQAIWREKITAVLTEAVENQDLADDLDKETAVIFIKSTLDGLIWRWFSSGESFDLGKTAPRIIGIMMDNLENHPCLRRK
# notes: also called native MtrR; WT MtrR
# Molecular target: the molecule itself
# Test: crystal structure; hanging-drop vapor diffusion; 1.6 M Na+/K+ phosphate, 0.2 M LiSO4, 0.1 M CAPS pH 10.5; space group C2; two MtrR dimers in the asymmetric unit
protein,measurement,value
B1,binding result,binds
